According to article PMC3958483, “Fine Specificity and Molecular Competition in SLAM Family Receptor Signalling” (PLoS ONE, 2014):

Columns and labels:
Experiment in all cases: SPR; biotinylated phosphopeptides immobilised on streptavidin chip (about 25 RU single, 50 RU tandem motifs); soluble recombinant protein injected; 37°C; HBS-EP; equilibrium binding (Table 4; same-day purification not given)
[1] = molecular target: CD244 ITSM2 phosphopeptide (human)
[2] = molecular target: CD244 ITSM3 phosphopeptide (human)
[3] = molecular target: CD244 ITSM4 phosphopeptide (human)

B1: SHP-2 N-terminal + C-terminal (N+C) SH2 domains (domain or fragment)
chain: TSRRWFHPNITGVEAENLLLTRGVDGSFLARPSKSNPGDFTLSVRRNGAVTHIKIQNTGDYYDLYGGEKFATLAELVQYYMEHHGQLKEKNGDVIELKYPLNCADPTSERWFHGHLSGKEAEKLLTEKGKHGSFLVRESQSHPGDFVLSVRTGDDKGESNDGKSKVTHVMIRCQELKYDVGGGERFDSLTDLVEHYKKNPMVETLGTVLQLKQPLNTT
A Kd [1] of 24000 nM was found for B1 in this work.

B2: EAT-2 (recombinant full-length human EAT-2) (natural protein)
chain: MDLPYYHGRLTKQDCETLLLKEGVDGNFLLRDSESIPGVLCLCVSFKNIVYTYRIFREKHGYYRIQTAEGSPKQVFPSLKELISKFEKPNQGMVVHLLKPIKRTSPSLRWRGLKLELETFVNSNSDYVDVLP
A Kd [2] of 70 nM, a Kd [3] of 40 nM and a Kd [1] of 60 nM were found for B2 in this work.

B3: SHIP SH2 (SH2 domain from human SHIP-1) (domain or fragment)
chain: WNHGNITRSKAEELLSRTGKDGSFLVRASESISRAYALCVLYRNCVYTYRILPNEDDKFTVQASEGVSMRFFTKLDQLIEFYKKENMGLVTHLQYPV
A Kd [2] of 2200 nM, a Kd [3] of 5600 nM and a Kd [1] of 2300 nM were found for B3 in this work.
